Experimental data from patent US20090297438A1, “Human Monoclonal Antibodies to Prostate Specific Membrane Antigen (PSMA)” (priority 2005, published 2009).
“Also recorded” adds a separate entry of the source.

Key:
[1] = molecular target: T1, PSMA immunopurified from LNCaP cells (Homo sapiens, UniProt Q04609); test: Binding specificity by ELISA; settings: antibody from 5 μg/ml, 1:2 serial dilutions
T1 construct: endogenous in cells; host or cells: LNCaP cells (protein immunopurified from them)
Experimental: A comparison of anti-PSMA antibodies on binding to immunopurified PSMA was performed by standard ELISA to examine the specificity of binding for PSMA.
PSMA was immunopurified from LNCaP cells and tested for binding against the anti-PSMA human monoclonal antibodies 1C3, 2A10, 2F5, and 2C6. Standard ELISA procedures were performed. The anti-PSMA human monoclonal antibodies were added at a concentration of 5 μg/ml and titrated down at 1:2 serial dilutions. Goat-anti-human IgG (kappa chain-specific) polyclonal antibody conjugated with horseradish peroxidase (HRP) was used as secondary antibody. The human anti-PSMA monoclonal antibody 7F12 was used as a positive control and a blank was used as a negative control.

[2] = molecular target: T2, PSMA-expressing LNCaP cells (Homo sapiens, UniProt Q04609); test: Binding specificity by flow cytometry; settings: FITC-labeled anti-human IgG detection, different antibody concentrations
T2 construct: host or cells: LNCaP human prostate cancer cells
T2 sequence (Q04609 whole entry): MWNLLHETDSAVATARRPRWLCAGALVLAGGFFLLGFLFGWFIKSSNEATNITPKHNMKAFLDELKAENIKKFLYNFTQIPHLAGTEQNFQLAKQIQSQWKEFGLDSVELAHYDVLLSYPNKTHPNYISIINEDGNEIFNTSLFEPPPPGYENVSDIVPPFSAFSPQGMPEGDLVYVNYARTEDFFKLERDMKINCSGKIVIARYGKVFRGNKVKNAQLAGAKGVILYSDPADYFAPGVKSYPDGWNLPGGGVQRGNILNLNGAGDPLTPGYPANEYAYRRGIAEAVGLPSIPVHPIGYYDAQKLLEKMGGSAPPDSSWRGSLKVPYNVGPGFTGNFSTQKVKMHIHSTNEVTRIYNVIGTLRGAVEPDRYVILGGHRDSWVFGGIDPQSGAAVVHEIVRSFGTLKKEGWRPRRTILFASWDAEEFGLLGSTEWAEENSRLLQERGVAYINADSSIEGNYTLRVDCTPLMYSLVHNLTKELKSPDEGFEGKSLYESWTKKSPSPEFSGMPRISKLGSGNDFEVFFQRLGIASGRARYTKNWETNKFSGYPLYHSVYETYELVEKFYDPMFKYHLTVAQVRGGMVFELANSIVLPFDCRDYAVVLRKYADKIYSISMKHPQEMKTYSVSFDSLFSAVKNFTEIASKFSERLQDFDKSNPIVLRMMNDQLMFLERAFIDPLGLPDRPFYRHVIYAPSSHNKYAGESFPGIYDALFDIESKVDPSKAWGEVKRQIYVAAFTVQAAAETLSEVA
Experimental: The human PSMA-expressing prostate cancer cell line LNCaP was used to determine the specificity of anti-PSMA human monoclonal antibodies by flow cytometry. Binding of the 2F5, 2A10, and 2C6 anti-PSMA human monoclonal antibodies was assessed by incubating the LNCaP cells with the anti-PSMA human monoclonal antibodies at different concentrations. The cells were washed and binding was detected with a FITC-labeled anti-human IgG Ab. Flow cytometric analyses were performed using a FACScan flow cytometry (Becton Dickinson, San Jose, Calif.). The human anti-PSMA monoclonal antibody 7F12 (as described in PCT Publication WO 03/064606) was used as a positive control and a non-PSMA specific isotype control antibody was used as a negative control. The results are depicted in FIG. 9.

T1 sequence (Q04609 whole entry): as above

Row | Molecule | binding to immunopurified PSMA [1] | binding to PSMA-expressing LNCaP cells [2]
1 | 1C3: human monoclonal anti-PSMA antibody, VH SEQ ID NO: 1, VL SEQ ID NO: 5 (antibody, listed as Homo sapiens, V domains shown) VH: QVQLVESGGGVVQPGRSLRLSCAASGFTFSSYAMHWVRQAPGKGLEWVAVISYDGNNKYYADSVKGRFTISRDNSKNTLYLQMNSLRAEDTAVYYCARAVPWGSRYYYYGMDVWGQGTTVTVSS VL: AIQLTQSPSSLSASVGDRVTITCRASQGISSALAWYQQKSGKAPKLLIFDASSLESGVPSRFSGSGSGTDFTLTISSLQPEDFATYYCQQFNSYPLTFGGGTKVEIK | detectable but only low level binding | –
2 | 2F5: human monoclonal anti-PSMA antibody, VH SEQ ID NO: 3, VL SEQ ID NO: 7 (antibody, listed as Homo sapiens, V domains shown) VH: EVQLVQSGAEVKKPGESLKISCKGSGYSFTSNWIGWVRQMPGKGLEWMGIIYPGDSDTRYSPSFQGQVTISADKSISTAYLQWNSLKASDTAMYYCARQTGFLWSFDLWGRGTLVTVSS VL: AIQLTQSPSSLSASVGDRVTITCRASQDISSALAWYQQKPGKAPKLLIYDASSLESGVPSRFSGSGSGTDFTLTISSLQPEDFATYYCQQFNSYPLTFGGGTKVEIKIK | bound with high specificity | bound specifically; also recorded: binds the cell surface of PSMA-expressing LNCaP cells
3 | 2C6: human monoclonal anti-PSMA antibody, VH SEQ ID NO: 4, VL SEQ ID NO: 8 (antibody, listed as Homo sapiens, V domains shown) VH: EVQLVQSGSEVKKPGESLKISCKGSGYSFTNYWIGWVRQMPGKGLEWMGIIYPGDSDTRYSPSFQGQVTISADKSISTAYLQWSSLKASDTAMYYCASPGYTSSWTSFDYWGQGTLVTVSS VL: EIVLTQSPATLSLSPGERATLSCRASQSVSSYLAWYQQKPGQAPRLLIYDASNRATGIPARFSGSGSGTDFTLTISSLEPEDFAVYYCQQRSNWPLFTFGPGTKVDIK | detectable but only low level binding | bound specifically; also recorded: binds the cell surface of PSMA-expressing LNCaP cells
